To fix the notation:
B1: Vacuolar protein sorting-associated protein 4 (Saccharomyces cerevisiae), P52917 (parent)
chain: MSTGDFLTKGIELVQKAIDLDTATQYEEAYTAYYNGLDYLMLALKYEKNPKSKDLIRAKFTEYLNRAEQLKKHLESEEANAAKKSPSAGSGSNGGNKKISQEEGEDNGGEDNKKLRGALSSAILSEKPNVKWEDVAGLEGAKEALKEAVILPVKFPHLFKGNRKPTSGILLYGPPGTGKSYLAKAVATEANSTFFSVSSSDLVSKWMGESEKLVKQLFAMARENKPSIIFIDEVDALTGTRGEGESEASRRIKTELLVQMNGVGNDSQGVLVLGATNIPWQLDSAIRRRFERRIYIPLPDLAARTTMFEINVGDTPCVLTKEDYRTLGAMTEGYSGSDIAVVVKDALMQPIRKIQSATHFKDVSTEDDETRKLTPCSPGDDGAIEMSWTDIEADELKEPDLTIKDFLKAIKSTRPTVNEDDLLKQEQFTRDFGQEGN
partner: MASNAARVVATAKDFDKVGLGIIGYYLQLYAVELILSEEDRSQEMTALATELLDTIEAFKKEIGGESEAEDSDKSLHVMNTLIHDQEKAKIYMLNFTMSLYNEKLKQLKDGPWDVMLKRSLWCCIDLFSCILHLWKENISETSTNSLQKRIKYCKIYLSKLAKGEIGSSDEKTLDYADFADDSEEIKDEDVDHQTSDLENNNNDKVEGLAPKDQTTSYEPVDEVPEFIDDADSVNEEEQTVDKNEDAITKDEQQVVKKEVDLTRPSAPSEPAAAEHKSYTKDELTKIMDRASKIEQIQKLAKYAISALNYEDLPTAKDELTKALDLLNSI
B2: Vacuolar protein sorting-associated protein VTA1 (Saccharomyces cerevisiae), Q06263 (parent)
chain: B1 partner
partner: B1 chain

Variants of B1 are the subject of the first assay. As to conditions: with vta1_yeast VTA1, Q06263.
Consider H359D, for which the “effect of a mutation on the interaction” value is given as “decreasing interaction”.

The variants in another assay derive from B2. As to conditions: with vps4_yeast VPS4, P52917.
For the variant S306R, the “effect of a mutation on the interaction” value was “decreasing interaction”.

With D312A, the “effect of a mutation on the interaction” value is recorded as “decreasing interaction”.

Turning to A307D, the “effect of a mutation on the interaction” value is on record as “disrupting interaction”.

T315R: the “effect of a mutation on the interaction” value is recorded as “decreasing interaction”.

On to Y303A, for which the “effect of a mutation on the interaction” value was “disrupting interaction”.

For the origin of these results see IntAct's records for PubMed 20696398.
